Patent publication US8158376B2, “Bisubstrate fluorescent probe binding to protein kinases” (University of Tartu, priority 2006, dated 2012)

Key:
[1] = target: PKBb (Homo sapiens, UniProt P31751); assay: Kinase selectivity panel, residual activity; format: biochemical; conditions: 1 μM compound, 50 μM ATP, 30° C.
Method: (§1) The assay of protein kinases was performed at 30° C. as described previously [Davies et al., Biochem. J. 351 (2000) 95; Murray et al., Biochem. J. 384 (2004) 477]. The results of the testing are expressed as the % of residual activity of the kinase in the presence of the inhibitor at 1 micromolar concentration.

[2] = target: PRK2 (Homo sapiens, UniProt Q16513); assay: Kinase selectivity panel, residual activity; format: biochemical
Chain of PRK2 (Q16513 whole entry): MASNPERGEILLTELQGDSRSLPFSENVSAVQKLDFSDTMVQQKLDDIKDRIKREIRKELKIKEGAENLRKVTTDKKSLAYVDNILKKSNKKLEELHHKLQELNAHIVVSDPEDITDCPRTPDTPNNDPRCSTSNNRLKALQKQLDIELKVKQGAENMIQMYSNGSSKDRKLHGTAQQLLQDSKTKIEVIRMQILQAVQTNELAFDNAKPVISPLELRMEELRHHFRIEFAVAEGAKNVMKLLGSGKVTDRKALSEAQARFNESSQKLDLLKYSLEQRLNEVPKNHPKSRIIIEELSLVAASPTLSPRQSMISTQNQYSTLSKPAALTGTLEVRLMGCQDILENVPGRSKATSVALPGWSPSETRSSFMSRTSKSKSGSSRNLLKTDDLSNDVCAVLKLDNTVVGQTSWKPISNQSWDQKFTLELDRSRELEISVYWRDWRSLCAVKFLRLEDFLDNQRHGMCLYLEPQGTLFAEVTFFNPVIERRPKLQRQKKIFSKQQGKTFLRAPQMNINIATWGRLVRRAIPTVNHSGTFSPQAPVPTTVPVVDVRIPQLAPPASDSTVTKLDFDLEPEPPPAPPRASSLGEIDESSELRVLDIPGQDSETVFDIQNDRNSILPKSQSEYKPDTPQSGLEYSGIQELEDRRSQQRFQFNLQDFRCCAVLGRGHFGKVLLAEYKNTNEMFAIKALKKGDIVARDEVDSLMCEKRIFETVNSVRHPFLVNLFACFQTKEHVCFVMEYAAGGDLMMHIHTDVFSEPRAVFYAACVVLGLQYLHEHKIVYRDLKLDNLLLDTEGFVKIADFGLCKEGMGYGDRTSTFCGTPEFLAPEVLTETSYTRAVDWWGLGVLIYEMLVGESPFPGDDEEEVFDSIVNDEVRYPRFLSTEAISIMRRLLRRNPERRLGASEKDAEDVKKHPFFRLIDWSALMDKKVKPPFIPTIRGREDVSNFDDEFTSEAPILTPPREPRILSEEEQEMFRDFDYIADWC
Method: as §1

[3] = target: PKBΔph (Homo sapiens, UniProt P31749); assay: Kinase selectivity panel, residual activity; format: biochemical; conditions: 1 μM compound, 5 μM ATP, 30° C.
Chain of PKBΔph (P31749 whole entry, stated change not applied): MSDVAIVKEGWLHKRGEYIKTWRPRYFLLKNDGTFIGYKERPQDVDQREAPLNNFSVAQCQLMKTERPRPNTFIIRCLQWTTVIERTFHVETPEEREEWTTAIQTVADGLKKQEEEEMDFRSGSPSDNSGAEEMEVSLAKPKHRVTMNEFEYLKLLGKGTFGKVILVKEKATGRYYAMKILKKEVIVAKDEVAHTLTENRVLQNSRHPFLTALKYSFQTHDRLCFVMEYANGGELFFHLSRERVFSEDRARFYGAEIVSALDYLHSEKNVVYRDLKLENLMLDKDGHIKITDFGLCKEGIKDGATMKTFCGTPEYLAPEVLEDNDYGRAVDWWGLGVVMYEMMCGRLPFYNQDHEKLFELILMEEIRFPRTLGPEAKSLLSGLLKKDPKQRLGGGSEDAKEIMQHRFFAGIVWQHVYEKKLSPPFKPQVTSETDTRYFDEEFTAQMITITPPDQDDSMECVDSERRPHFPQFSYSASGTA
Method: as §1

[4] = target: cAPK Cα (Homo sapiens, UniProt P17612); assay: Competition: displacement of ARC-TAMRA from complex with cAPK Cα, fluorescence anisotropy, LS 55; format: binding; parameters: purchased Biaffin AG
Method: A complex was created between 10 nM of ARC-TAMRA and 10 nM of cAPK Cα in 0.500 ml of buffer (50 mM HEPES, 200 mM NaCl, 0.5 g/l BSA, 5 mM DTT, 0.05% TWEEN 20, MilliQ water; pH 7.4). Different compounds were screened for binding to cAPK Cα against fixed concentrations of ARC-TAMRA and cAPK Cα (FIG. 4). 1-3 μl quantities of various dilutions of the solution of the inhibitor were added to 500 μl solution of ARC-TAMRA complex with the kinase and fluorescence anisotropy was measured after each addition of the […] after 10 min delay time.

Chain of PKBb (P31751 whole entry): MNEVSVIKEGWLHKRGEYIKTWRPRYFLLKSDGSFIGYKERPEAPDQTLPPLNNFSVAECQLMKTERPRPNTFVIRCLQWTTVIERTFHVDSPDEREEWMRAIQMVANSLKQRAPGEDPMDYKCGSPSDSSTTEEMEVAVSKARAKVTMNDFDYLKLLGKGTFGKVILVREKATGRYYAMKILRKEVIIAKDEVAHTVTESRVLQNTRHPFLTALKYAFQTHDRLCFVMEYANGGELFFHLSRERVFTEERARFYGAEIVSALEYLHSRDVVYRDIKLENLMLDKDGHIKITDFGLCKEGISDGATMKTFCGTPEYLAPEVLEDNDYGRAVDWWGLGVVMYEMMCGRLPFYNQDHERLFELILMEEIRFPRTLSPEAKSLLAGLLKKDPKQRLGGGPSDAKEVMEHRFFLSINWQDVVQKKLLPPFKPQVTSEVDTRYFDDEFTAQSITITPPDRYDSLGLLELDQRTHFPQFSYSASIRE

Question: With `N=C(N)NCCC[C@@H](NC(=O)[C@@H](CCCNC(=N)N)NC(=O)[C@@H](CCCNC(=N)N)NC(=O)[C@@H](CCCNC(=N)N)NC(=O)[C@@H](CCCNC(=N)N)NC(=O)[C@@H](CCCNC(=N)N)NC(=O)CCCCCNC(=O)[C@H]1O[C@@H](n2cnc3c(N)ncnc32)[C@H](O)[C@@H]1O)C(N)=O` [Compound 5, AdcAhx(D-Arg)6-NH2] as the compound, how does the remaining activity at 1 µM [1] read?
Answer: Its remaining activity at 1 µM is no more than 3%.

Question: And the remaining activity at 1 µM [2]?
Answer: Its remaining activity at 1 µM is no more than 3%.

Question: What about the residual activity [3] of the same compound?
Answer: Its residual activity is no more than 3%.

Question: What about the IC50 ([4]; 10 nM ARC-TAMRA, 10 nM cAPK Cα) of the same compound?
Answer: The IC50 was 35 nM.

Question: And the Kd ([4]; cAPK Cα displacement, read-out: Kd of inhibitor (characterized with the probe))?
Answer: The Kd was 2.5 nM.

Question: What about the Ki ([4]; read-out: Ki (competitive binding)) of the same compound?
Answer: Its Ki is 2.5 nM.
